According to patent publication US20130137856A1, “PROTEIN BINDING DOMAINS STABILIZING FUNCTIONAL CONFORMATIONAL STATES OF GPCRS AND USES THEREOF” (priority 2010, published 2013):

Target: β2AR truncated after amino acid 365 (β2AR-365) having an amino terminal Flag epitope tag, native, agonist-bound or unliganded (human) (UniProt P07550)
Test: cell-based or functional assay

High affinity state Ki of (-)-isoproterenol, [3H]-DHA competition binding, β2AR in HDL particles + Gs (β2AR alone: 107.5): 1.07 nM
fold increase of the affinity of isoproterenol: 100 fold
Substance: Gs heterotrimer
